Numbered stars: 1 amine (or outer) side, 2 acyl side, 3 side chain; on linkers, the order of the positions; unused ones are H or OH. Bridge positions count the residues as written; N and C are the ends. Square brackets hold non-standard residues; d marks the D form. Side chains are listed from the residue outwards. Ends that are not written are not given here. * marks the point of attachment. C18 diacid = O=C(O)CCCCCCCCCCCCCCCCC(=O)*; γGlu = O=C(O)[C@H](CCC(=O)[*:2])N[*:1]; Aib = CC(C)(N)C(=O)O
T1: human amylin receptor (calcitonin receptor co-expressed with receptor activity modifying protein, RAMP3) (human, UniProt P30988 25-474; O60896 24-148)
T1 sequence (looked up) 1: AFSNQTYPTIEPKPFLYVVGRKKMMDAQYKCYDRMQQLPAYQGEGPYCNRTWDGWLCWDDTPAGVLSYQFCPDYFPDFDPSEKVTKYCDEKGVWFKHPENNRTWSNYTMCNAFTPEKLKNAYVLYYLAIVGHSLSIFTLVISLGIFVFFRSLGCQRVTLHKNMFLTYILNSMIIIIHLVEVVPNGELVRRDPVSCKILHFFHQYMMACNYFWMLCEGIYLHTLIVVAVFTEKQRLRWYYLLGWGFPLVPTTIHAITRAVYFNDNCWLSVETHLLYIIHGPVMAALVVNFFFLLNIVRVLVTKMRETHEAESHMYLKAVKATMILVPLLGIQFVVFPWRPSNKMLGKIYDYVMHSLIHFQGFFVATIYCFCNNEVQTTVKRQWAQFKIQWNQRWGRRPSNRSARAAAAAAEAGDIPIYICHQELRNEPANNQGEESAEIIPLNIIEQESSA
T1 sequence (looked up) 2: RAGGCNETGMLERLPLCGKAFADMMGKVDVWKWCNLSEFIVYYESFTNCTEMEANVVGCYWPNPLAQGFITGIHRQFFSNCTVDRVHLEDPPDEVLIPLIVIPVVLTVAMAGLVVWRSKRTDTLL

T2: human calcitonin receptor (human, UniProt P30988 25-474)
T2 sequence (looked up): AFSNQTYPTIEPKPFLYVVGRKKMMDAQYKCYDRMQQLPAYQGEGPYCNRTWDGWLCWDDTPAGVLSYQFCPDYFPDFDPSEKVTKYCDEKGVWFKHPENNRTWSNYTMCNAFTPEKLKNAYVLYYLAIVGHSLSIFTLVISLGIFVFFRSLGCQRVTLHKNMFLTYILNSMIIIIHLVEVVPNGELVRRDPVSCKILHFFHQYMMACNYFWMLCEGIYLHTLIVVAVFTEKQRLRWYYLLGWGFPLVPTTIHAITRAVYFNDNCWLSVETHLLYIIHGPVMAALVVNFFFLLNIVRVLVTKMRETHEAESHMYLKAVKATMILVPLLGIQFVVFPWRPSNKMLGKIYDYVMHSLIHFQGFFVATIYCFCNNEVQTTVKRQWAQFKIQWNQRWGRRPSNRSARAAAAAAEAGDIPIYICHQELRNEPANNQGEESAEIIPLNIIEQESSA


Tests used:
[1] = target: T1, human amylin receptor (calcitonin …); test: cell-based or functional assay
[2] = target: T2, human calcitonin receptor; test: cell-based or functional assay

| Binder | EC50 (cAMP production) [1] | Ratio (EC50 hCTR / EC50 hAMYR3) [1] | EC50 (cAMP production) [2] |
| --- | --- | --- | --- |
| {C18 diacid}-[γGlu]KCNTATCATQRLANFLVHSS[Aib]NFGPILPPTRVGSNTY-NH2 (disulfide 3-8; SMILES CC[C@H](C)[C@H](NC(=O)[C@@H]1CCCN1C(=O)CNC(=O)[C@H](Cc1ccccc1)NC(=O)[C@H](CC(N)=O)NC(=O)C(C)(C)NC(=O)[C@H](CO)NC(=O)[C@H](CO)NC(=O)[C@H](Cc1c[nH]cn1)NC(=O)[C@@H](NC(=O)[C@H](CC(C)C)NC(=O)[C@H](Cc1ccccc1)NC(=O)[C@H](CC(N)=O)NC(=O)[C@H](C)NC(=O)[C@H](CC(C)C)NC(=O)[C@H](CCCNC(=N)N)NC(=O)[C@H](CCC(N)=O)NC(=O)[C@@H](NC(=O)[C@H](C)NC(=O)[C@@H]1CSSC[C@H](NC(=O)[C@H](CCCCN)NC(=O)CC[C@H](NC(=O)CCCCCCCCCCCCCCCCC(=O)O)C(=O)O)C(=O)N[C@@H](CC(N)=O)C(=O)N[C@@H]([C@@H](C)O)C(=O)N[C@@H](C)C(=O)N[C@@H]([C@@H](C)O)C(=O)N1)[C@@H](C)O)C(C)C)C(=O)N[C@@H](CC(C)C)C(=O)N1CCC[C@H]1C(=O)N1CCC[C@H]1C(=O)N[C@H](C(=O)N[C@@H](CCCNC(=N)N)C(=O)N[C@H](C(=O)NCC(=O)N[C@@H](CO)C(=O)N[C@@H](CC(N)=O)C(=O)N[C@H](C(=O)N[C@@H](Cc1ccc(O)cc1)C(N)=O)[C@@H](C)O)C(C)C)[C@@H](C)O) [Peptide 71 (SEQ ID NO: 71)] | 0.211 nM | 7 | 1.39 nM |
| K([γGlu-C18 diacid])KCNTATCATQRLANFLVHSS[Aib]NFGPILPPTNVGSRTY-NH2 (disulfide 3-8; N-terminus assumed; SMILES CC[C@H](C)[C@H](NC(=O)[C@@H]1CCCN1C(=O)CNC(=O)[C@H](Cc1ccccc1)NC(=O)[C@H](CC(N)=O)NC(=O)C(C)(C)NC(=O)[C@H](CO)NC(=O)[C@H](CO)NC(=O)[C@H](Cc1c[nH]cn1)NC(=O)[C@@H](NC(=O)[C@H](CC(C)C)NC(=O)[C@H](Cc1ccccc1)NC(=O)[C@H](CC(N)=O)NC(=O)[C@H](C)NC(=O)[C@H](CC(C)C)NC(=O)[C@H](CCCNC(=N)N)NC(=O)[C@H](CCC(N)=O)NC(=O)[C@@H](NC(=O)[C@H](C)NC(=O)[C@@H]1CSSC[C@H](NC(=O)[C@H](CCCCN)NC(=O)[C@@H](N)CCCCNC(=O)CC[C@H](NC(=O)CCCCCCCCCCCCCCCCC(=O)O)C(=O)O)C(=O)N[C@@H](CC(N)=O)C(=O)N[C@@H]([C@@H](C)O)C(=O)N[C@@H](C)C(=O)N[C@@H]([C@@H](C)O)C(=O)N1)[C@@H](C)O)C(C)C)C(=O)N[C@@H](CC(C)C)C(=O)N1CCC[C@H]1C(=O)N1CCC[C@H]1C(=O)N[C@H](C(=O)N[C@@H](CC(N)=O)C(=O)N[C@H](C(=O)NCC(=O)N[C@@H](CO)C(=O)N[C@@H](CCCNC(=N)N)C(=O)N[C@H](C(=O)N[C@@H](Cc1ccc(O)cc1)C(N)=O)[C@@H](C)O)C(C)C)[C@@H](C)O) [Peptide 73 (SEQ ID NO: 73)] | 0.256 nM | 7 | 1.82 nM |
| K([γGlu-γGlu-C18 diacid])CNTATCATQRLANFLVHSS[Aib]NFGPILPPTNVGSRTY-NH2 (disulfide 2-7; N-terminus assumed; SMILES CC[C@H](C)[C@H](NC(=O)[C@@H]1CCCN1C(=O)CNC(=O)[C@H](Cc1ccccc1)NC(=O)[C@H](CC(N)=O)NC(=O)C(C)(C)NC(=O)[C@H](CO)NC(=O)[C@H](CO)NC(=O)[C@H](Cc1c[nH]cn1)NC(=O)[C@@H](NC(=O)[C@H](CC(C)C)NC(=O)[C@H](Cc1ccccc1)NC(=O)[C@H](CC(N)=O)NC(=O)[C@H](C)NC(=O)[C@H](CC(C)C)NC(=O)[C@H](CCCNC(=N)N)NC(=O)[C@H](CCC(N)=O)NC(=O)[C@@H](NC(=O)[C@H](C)NC(=O)[C@@H]1CSSC[C@H](NC(=O)[C@@H](N)CCCCNC(=O)CC[C@H](NC(=O)CC[C@H](NC(=O)CCCCCCCCCCCCCCCCC(=O)O)C(=O)O)C(=O)O)C(=O)N[C@@H](CC(N)=O)C(=O)N[C@@H]([C@@H](C)O)C(=O)N[C@@H](C)C(=O)N[C@@H]([C@@H](C)O)C(=O)N1)[C@@H](C)O)C(C)C)C(=O)N[C@@H](CC(C)C)C(=O)N1CCC[C@H]1C(=O)N1CCC[C@H]1C(=O)N[C@H](C(=O)N[C@@H](CC(N)=O)C(=O)N[C@H](C(=O)NCC(=O)N[C@@H](CO)C(=O)N[C@@H](CCCNC(=N)N)C(=O)N[C@H](C(=O)N[C@@H](Cc1ccc(O)cc1)C(N)=O)[C@@H](C)O)C(C)C)[C@@H](C)O) [Peptide 72 (SEQ ID NO: 72)] | 0.227 nM | 18 | 4 nM |

Second part, the binder after the results:

| EC50 (cAMP production) [1] | Ratio (EC50 hCTR / EC50 hAMYR3) [1] | EC50 (cAMP production) [2] | Binder |
| --- | --- | --- | --- |
| 0.356 nM | 13 | 4.57 nM | K([γGlu-γGlu-C18 diacid])KCNTATCATQRLANFLVHSS[Aib]NFGPILPPTNVGSRTY-NH2 (disulfide 3-8; N-terminus assumed; SMILES CC[C@H](C)[C@H](NC(=O)[C@@H]1CCCN1C(=O)CNC(=O)[C@H](Cc1ccccc1)NC(=O)[C@H](CC(N)=O)NC(=O)C(C)(C)NC(=O)[C@H](CO)NC(=O)[C@H](CO)NC(=O)[C@H](Cc1c[nH]cn1)NC(=O)[C@@H](NC(=O)[C@H](CC(C)C)NC(=O)[C@H](Cc1ccccc1)NC(=O)[C@H](CC(N)=O)NC(=O)[C@H](C)NC(=O)[C@H](CC(C)C)NC(=O)[C@H](CCCNC(=N)N)NC(=O)[C@H](CCC(N)=O)NC(=O)[C@@H](NC(=O)[C@H](C)NC(=O)[C@@H]1CSSC[C@H](NC(=O)[C@H](CCCCN)NC(=O)[C@@H](N)CCCCNC(=O)CC[C@H](NC(=O)CC[C@H](NC(=O)CCCCCCCCCCCCCCCCC(=O)O)C(=O)O)C(=O)O)C(=O)N[C@@H](CC(N)=O)C(=O)N[C@@H]([C@@H](C)O)C(=O)N[C@@H](C)C(=O)N[C@@H]([C@@H](C)O)C(=O)N1)[C@@H](C)O)C(C)C)C(=O)N[C@@H](CC(C)C)C(=O)N1CCC[C@H]1C(=O)N1CCC[C@H]1C(=O)N[C@H](C(=O)N[C@@H](CC(N)=O)C(=O)N[C@H](C(=O)NCC(=O)N[C@@H](CO)C(=O)N[C@@H](CCCNC(=N)N)C(=O)N[C@H](C(=O)N[C@@H](Cc1ccc(O)cc1)C(N)=O)[C@@H](C)O)C(C)C)[C@@H](C)O) [Peptide 74 (SEQ ID NO: 74)] |
| 0.161 nM | 99 | 16 nM | K([γGlu-γGlu-C18 diacid])CNTATCATQRLANFLRHSS[Aib]NFGPILPPTNVGSNTY-NH2 (disulfide 2-7; N-terminus assumed; SMILES CC[C@H](C)[C@H](NC(=O)[C@@H]1CCCN1C(=O)CNC(=O)[C@H](Cc1ccccc1)NC(=O)[C@H](CC(N)=O)NC(=O)C(C)(C)NC(=O)[C@H](CO)NC(=O)[C@H](CO)NC(=O)[C@H](Cc1c[nH]cn1)NC(=O)[C@H](CCCNC(=N)N)NC(=O)[C@H](CC(C)C)NC(=O)[C@H](Cc1ccccc1)NC(=O)[C@H](CC(N)=O)NC(=O)[C@H](C)NC(=O)[C@H](CC(C)C)NC(=O)[C@H](CCCNC(=N)N)NC(=O)[C@H](CCC(N)=O)NC(=O)[C@@H](NC(=O)[C@H](C)NC(=O)[C@@H]1CSSC[C@H](NC(=O)[C@@H](N)CCCCNC(=O)CC[C@H](NC(=O)CC[C@H](NC(=O)CCCCCCCCCCCCCCCCC(=O)O)C(=O)O)C(=O)O)C(=O)N[C@@H](CC(N)=O)C(=O)N[C@@H]([C@@H](C)O)C(=O)N[C@@H](C)C(=O)N[C@@H]([C@@H](C)O)C(=O)N1)[C@@H](C)O)C(=O)N[C@@H](CC(C)C)C(=O)N1CCC[C@H]1C(=O)N1CCC[C@H]1C(=O)N[C@H](C(=O)N[C@@H](CC(N)=O)C(=O)N[C@H](C(=O)NCC(=O)N[C@@H](CO)C(=O)N[C@@H](CC(N)=O)C(=O)N[C@H](C(=O)N[C@@H](Cc1ccc(O)cc1)C(N)=O)[C@@H](C)O)C(C)C)[C@@H](C)O) [Peptide 75 (SEQ ID NO: 75)] |
| 0.209 nM | 107 | 22.3 nM | K([γGlu-C18 diacid])CNTATCATQRLANFLRHSS[Aib]NFGPILPPTRVGSNTY-NH2 (disulfide 2-7; N-terminus assumed; SMILES CC[C@H](C)[C@H](NC(=O)[C@@H]1CCCN1C(=O)CNC(=O)[C@H](Cc1ccccc1)NC(=O)[C@H](CC(N)=O)NC(=O)C(C)(C)NC(=O)[C@H](CO)NC(=O)[C@H](CO)NC(=O)[C@H](Cc1c[nH]cn1)NC(=O)[C@H](CCCNC(=N)N)NC(=O)[C@H](CC(C)C)NC(=O)[C@H](Cc1ccccc1)NC(=O)[C@H](CC(N)=O)NC(=O)[C@H](C)NC(=O)[C@H](CC(C)C)NC(=O)[C@H](CCCNC(=N)N)NC(=O)[C@H](CCC(N)=O)NC(=O)[C@@H](NC(=O)[C@H](C)NC(=O)[C@@H]1CSSC[C@H](NC(=O)[C@@H](N)CCCCNC(=O)CC[C@H](NC(=O)CCCCCCCCCCCCCCCCC(=O)O)C(=O)O)C(=O)N[C@@H](CC(N)=O)C(=O)N[C@@H]([C@@H](C)O)C(=O)N[C@@H](C)C(=O)N[C@@H]([C@@H](C)O)C(=O)N1)[C@@H](C)O)C(=O)N[C@@H](CC(C)C)C(=O)N1CCC[C@H]1C(=O)N1CCC[C@H]1C(=O)N[C@H](C(=O)N[C@@H](CCCNC(=N)N)C(=O)N[C@H](C(=O)NCC(=O)N[C@@H](CO)C(=O)N[C@@H](CC(N)=O)C(=O)N[C@H](C(=O)N[C@@H](Cc1ccc(O)cc1)C(N)=O)[C@@H](C)O)C(C)C)[C@@H](C)O) [Peptide 76 (SEQ ID NO: 76)] |

— patent US20220204580A1 (AstraZeneca / MedImmune, published 2022)
